Experimental data: article PMC3937733

Target: mTurquoise-Tub1p (S. cerevisiae) (UniProt P09733)
Test: FRET or BRET; sensitized emission FRET in living S. cerevisiae cells by confocal microscopy; mTurquoise donor, YFP acceptor; FRET index corrected for donor and acceptor bleed through and for the level of the donor (relative FRET index)

Chain of UniProt P09733 (P09733 whole entry): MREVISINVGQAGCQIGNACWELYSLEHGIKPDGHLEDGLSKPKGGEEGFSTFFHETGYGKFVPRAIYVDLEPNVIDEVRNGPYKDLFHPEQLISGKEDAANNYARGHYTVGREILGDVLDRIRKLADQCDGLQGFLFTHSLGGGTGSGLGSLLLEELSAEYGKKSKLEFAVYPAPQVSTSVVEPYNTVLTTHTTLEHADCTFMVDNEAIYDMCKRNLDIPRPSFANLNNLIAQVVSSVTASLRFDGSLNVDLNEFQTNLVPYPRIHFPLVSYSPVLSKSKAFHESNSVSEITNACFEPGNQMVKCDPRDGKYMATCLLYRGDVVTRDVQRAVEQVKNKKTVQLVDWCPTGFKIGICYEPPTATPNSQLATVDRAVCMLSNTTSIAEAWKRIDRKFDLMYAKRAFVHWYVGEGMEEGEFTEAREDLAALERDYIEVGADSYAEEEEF

YFP-VirE2 (from UniProt P0A3W8 1-533) (natural protein)
relative FRET index: 11.9
